Data taken from patent US20200078441A1.

Tests used:
[1] = target: T1, recombinant His-tagged AGO2 protein (human Argonaute 2, baculovirus-expressed) (human), Q9UKV8; test: TAT-11 peptide
[2] = target: T1, recombinant His-tagged AGO2 protein …
[3] = target: T1, recombinant His-tagged AGO2 protein …; test: TAT-26 peptide

T1 sequence (Q9UKV8 other isoform, or with tags, fused parts or gaps limits assumed): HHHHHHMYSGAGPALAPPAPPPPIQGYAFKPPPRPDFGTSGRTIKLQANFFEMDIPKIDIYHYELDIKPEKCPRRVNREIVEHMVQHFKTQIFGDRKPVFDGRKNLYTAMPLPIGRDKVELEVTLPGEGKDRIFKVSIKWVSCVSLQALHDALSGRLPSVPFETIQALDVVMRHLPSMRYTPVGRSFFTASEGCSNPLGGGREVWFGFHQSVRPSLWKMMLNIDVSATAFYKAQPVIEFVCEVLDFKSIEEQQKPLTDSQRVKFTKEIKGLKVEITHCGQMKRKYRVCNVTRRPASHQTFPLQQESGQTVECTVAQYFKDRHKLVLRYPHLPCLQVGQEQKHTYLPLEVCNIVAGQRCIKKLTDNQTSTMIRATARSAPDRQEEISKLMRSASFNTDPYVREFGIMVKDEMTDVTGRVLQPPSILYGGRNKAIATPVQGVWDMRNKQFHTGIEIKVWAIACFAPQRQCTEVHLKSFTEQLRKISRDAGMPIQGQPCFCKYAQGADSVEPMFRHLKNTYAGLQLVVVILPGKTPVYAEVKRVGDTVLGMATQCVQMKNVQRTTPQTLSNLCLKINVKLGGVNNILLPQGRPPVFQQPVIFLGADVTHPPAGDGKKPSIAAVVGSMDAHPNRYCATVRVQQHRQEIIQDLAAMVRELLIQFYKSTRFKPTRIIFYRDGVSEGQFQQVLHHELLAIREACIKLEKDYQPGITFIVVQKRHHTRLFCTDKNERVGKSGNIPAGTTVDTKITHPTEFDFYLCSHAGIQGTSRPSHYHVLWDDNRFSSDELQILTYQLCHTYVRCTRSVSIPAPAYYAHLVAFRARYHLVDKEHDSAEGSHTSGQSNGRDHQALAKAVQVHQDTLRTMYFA

| Binder | Kd [1] [µM] | koff [2] [s⁻¹] | kon [2] [M⁻¹ s⁻¹] | Kd [3] [µM] |
| --- | --- | --- | --- | --- |
| YQFPEFRVERTPLPSGRKKRRQRRRPPQ (modifications not checked) [TAT-11 decoy peptide (MSI1 peptide 11 with HIV-1 Tat (48-60) cell-penetrating peptide)] | 3.33 | 0.00274 | 823 |  |
| HSLGGPLIATAFTNGGRKKRRQRRRPPQ (modifications not checked) [TAT-26 decoy peptide (MSI1 peptide 26 with HIV-1 Tat (48-60) cell-penetrating peptide)] |  | 0.00226 | 488 | 4.63 |
